Article PMC10658565, “Polymorphic nanobody crystals as long‐acting intravitreal therapy for wet age‐related macular degeneration” (Bioengineering & Translational Medicine, 2023)
Changes are numbered by the printed parent chain. Names and notes keep the numbering of the source.

B1: mNb‐WT (VHH)
VHH: DVQLVESGGGLVQPGGSLRLSCAASGRTFSSYSMGWFRQAPGKEREFVVAISKGGYKYDAVSLEGRFTISRDNAKNTVYLQINSLRPEDTAVYYCASSRAYGSSRLRLADTYEYWGQGTLVTVSS
notes: also in PDB 8IIU (crystal of the protein without label); The 6xHis-labelled form was used for the ELISA; crystals were grown from protein without label; also called model anti‐VEGF nanobody; model nanobody mNb‐WT
B2: Mutant 1 (K44A mutation) (VHH)
VHH: B1 VHH with K43A
notes: as the chain of m1 with K44A
B3: Mutant 2 (E45A mutation) (VHH)
VHH: B1 VHH with E44A
notes: as the chain of m1 with E45A; also in PDB 8IJZ (crystal of the protein without label)
B4: Mutant 6 (S8A mutation) (VHH)
VHH: B1 VHH with S7A
notes: as the chain of m1 with S8A
B5: Mutant 3 (K44A/E45A mutation) (VHH)
VHH: B1 VHH with K43A, E44A
notes: as the chain of m1 with K44A and E45A
B6: Mutant 5 (Q118N mutation) (VHH)
VHH: B1 VHH with Q117N
notes: as the chain of m1 with Q118N
B7: Mutant 7 (Q14N mutation) (VHH)
VHH: B1 VHH with Q13N
notes: as the chain of m1 with Q14N; also in PDB 8IJS (crystal of the protein without label)
B8: Mutant 4 (Y95F mutation) (VHH)
VHH: B1 VHH with Y94F
notes: as the chain of m1 with Y95F

biological target: T1, recombinant VEGF‐A165 protein (Homo sapiens (assumed), UniProt P15692-4, strain); assay: ELISA; VEGF‐A165 coated on high adsorption plates overnight at 4°C; blocked with 5% skim milk; linear gradient of 6xHis-labelled nanobodies, 1 h at 37°C; detected with HRP‐conjugated 6xHis tag antibody, TMB, 450 nm; settings: both partners purified
T1 construct: also called vascular endothelial growth factor; source: bought: SinoBiological Co. Ltd. (Cat: HPLC‐11066‐HNAH)
T1 sequence (P15692 whole entry, looked up, change not shown): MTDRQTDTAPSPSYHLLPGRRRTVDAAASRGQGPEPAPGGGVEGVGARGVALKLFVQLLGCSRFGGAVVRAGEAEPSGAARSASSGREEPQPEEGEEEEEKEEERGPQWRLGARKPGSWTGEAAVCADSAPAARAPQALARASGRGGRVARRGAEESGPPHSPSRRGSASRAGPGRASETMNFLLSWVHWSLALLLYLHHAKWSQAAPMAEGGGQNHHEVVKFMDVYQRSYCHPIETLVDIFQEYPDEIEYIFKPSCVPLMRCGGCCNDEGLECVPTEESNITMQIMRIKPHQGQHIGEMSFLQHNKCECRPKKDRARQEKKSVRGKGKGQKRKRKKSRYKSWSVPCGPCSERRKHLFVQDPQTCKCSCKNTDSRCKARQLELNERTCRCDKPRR

| binding result | Binder |
| --- | --- |
| binds | B1 |
| binds | B2 |
| binds | B3 |
| binds | B4 |
| binds | B5 |
| binds | B6 |
| binds | B7 |
| binds | B8 |
